Positions count from the first letter of the chain named. Names may count otherwise. “And” between values parts separate entries of the source, which are not always exact repeats. Equal entries are not always repeated. Values belong to the binder of their own block, whether it stands above or below them.
Experiments:
[1] = target: T1, human VEGF165 (human, UniProt P15692-4 27-191); test: capture ELISA, Fab on anti-Fd, biotinylated VEGF165
T1 construct: the isoform is VEGF165; also called huVEGF; recombinant VEGF165
Procedure: (§1) Briefly, this capture ELISA involved coating individual wells of a 96-well Maxisorp Immunoplate with approximately 50 ng of a sheep anti-human Fd antibody (Biodesign International, ME) in a carbonate buffer at pH 8.5 overnight at 4° C. The next day, the plate was blocked with 3% BSA in PBS buffer for 1 hour at room temperature. Fab supernatant was then added to the plate and incubated at room temperature for 1 hour. After washing, the biotinylated VEGF165 protein was added to the well and the mixture was incubated for 1.5 hours at room temperature. This was followed by incubation with neutravidin-horseradish peroxydase (HRP) conjugate (Pierce, Ill.) for approximately 40 minutes at room temperature. HRP activity was detected with tetra-methyl-benzidine (TMB) substrate and the reaction quenched with 0.2 M H2SO4. Plates were read at 450 nm.
(§2) The Fab concentration was determined by comparing the ELISA signals with the signals generated by the reference Fab.

[2] = target: T2, mouse VEGF164 (mouse, UniProt Q00731-2 27-190); test: ELISA on murine VEGF164 (Example 7), O.D. 450 nm against antibody concentration, 4-parameter fit
T2 construct: also called mVEGF164; murine VEGF164
T2 sequence (looked up): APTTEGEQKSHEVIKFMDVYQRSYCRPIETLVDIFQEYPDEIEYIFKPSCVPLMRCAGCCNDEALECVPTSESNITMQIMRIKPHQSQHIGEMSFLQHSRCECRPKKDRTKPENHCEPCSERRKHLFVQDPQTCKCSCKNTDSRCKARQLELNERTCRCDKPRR
Procedure: (§3) EC50 values were determined using non-linear regression analysis (log dose response, 4-parameter fit curves) in GraphPad Prism, version 5.01 (San Diego, Calif.).

[3] = target: T1, human VEGF165; test: KinExA, IgG in solution, huVEGF165-coated beads
Procedure: Coated beads were then separated (spin) from unreacted huVEGF protein solution, and blocked with 1M Tris, pH 8, containing BSA at 10 mg/mL), for approximately 15 minutes at room temperature. After this, the bead slurry was spun to remove the blocking solution, and then the block step was repeated for approximately 2 hours using fresh block buffer, and stored at 4° C. until used. Prior to use, the huVEGF-coated beads were transferred to a bead vial, resuspended in approximately 27 mLs of instrument buffer (10 mM HEPES+300 mM NaCl+5 mM CaCl₂+0.05% P20+0.02% NaN₃, pH8), and affixed to the KinExA instrument. […] These concentrations of mAbs were chosen to allow each KD measurement to be made under both receptor- and KD-controlled conditions, leading to more rigorous estimations of reagent activity and affinity, respectively. […] Two-fold serial dilutions of huVEGF protein were then titrated across 9 of the tubes in each mAb series, followed by two additional 10-fold-dilutions, leaving one tube as the mAb-only, “zero” control. […] Based on theory curve simulations available through the vendor software (Sapidyne Instruments, Boise, Idaho), the mixtures were incubated 1-4 days at room temperature to allow binding to reach equilibrium. At the end of this time, signal-testing experiments were conducted to determine the appropriate run conditions for each set of measurements.

[4] = target: T3, human VEGF121 (human, UniProt P15692-9 27-147); test: ELISA on human VEGF121 (Example 8), OD 450 nm against antibody concentration, 4-parameter fit
T3 construct: the isoform is VEGF121
T3 sequence (looked up): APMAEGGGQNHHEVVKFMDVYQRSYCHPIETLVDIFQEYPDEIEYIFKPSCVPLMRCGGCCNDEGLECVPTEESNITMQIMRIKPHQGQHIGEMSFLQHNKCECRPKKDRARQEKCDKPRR
Procedure: as §3

[5] = target: T1, human VEGF165; test: VEGF165 ELISA of purified IgGs, OD450 against ug/ml
[6] = target: T1, human VEGF165; test: ELISA of Fabs at normalised concentrations on VEGF165 (Example 5), OD450 against Fab ug/ml
Procedure: as §1, §2

[7] = target: T2, mouse VEGF164; test: ELISA, coated VEGF, IgG, anti-human-Fc-HRP
Procedure: (§4) The 96-well microtiter plates (Corning) were coated with 50 μl/well of human and mouse VEGF165 or VEGF121 at a concentration of 5 μg/ml in PBS at 4° C. overnight. After being washed three times with PBS containing 0.1% Tween-20 (PBST), the wells were blocked with blocking buffer (4% skimmed milk in PBS). After 1 h incubation at room temperature, the plates were washed with PBST and a 2-fold serial dilution of the antibodies (starting from 8 nM) in blocking buffer were added and incubated for 1 hour at room temperature. The antibody solution was removed by washing with PBST followed by 1 hour incubation at room temperature with a 1:3000 dilution of an anti-human-Fc-HRP antibody (Thermo Scientific) prepared in PBST. Binding was visualized with the addition of 50 μL of SureBlue Reserve TMB substrate (KPL) for 5 minutes at room temperature and the reaction was stopped by adding 50 μL of TMB Stop Solution (KPL). The absorbance at 450 nm was measured using a microtiter plate reader. The data were analyzed using Prism 5 software (GraphPad).

[8] = target: T1, human VEGF165; test: ELISA, coated VEGF, IgG, anti-human-Fc-HRP
Procedure: as §4

B2: J05 IgG (antibody, V domains shown)
VH: EVQLLESGGGLVQPGGSLRLSCAASGFTFSWYEMYWVRQAPGKGLEWVSSISPSGGWTMYADSVKGRFTISRDNSKNTLYLQMNSLRAEDTAVYYCATPLYSSDGLSAGDIWGQGTMVTVSS
VL: EIVLTQSPATLSLSPGERATLSCRASQSVSSSYLAWYQQKPGQAPRLLIYGASSRATGIPDRFSGSGSGTDFTLTISRLEPEDFAVYYCQQSYRTPSFGQGTRLEITR
EC50 [2]: 46 pM | FoldΔ KD vs. EO6-wt [3]: 11 fold | Kd [3]: 220 pM | EC50 [4]: 4970 pM

B4: E06 germline M4 Fab (Fab, V domains shown)
VH: B2 VH
VL: EIVLTQSPATLSLSPGERATLSCRASQSVSSSYLAWYQQKPGQAPRLLIYGASSRATGIPDRFSGSGSGTDFTLTISRLEPEDFAVYYCQQSYSTPSFGQGTRLEIT
notes: Fab; D1E/Q3V/M4L/T86V in the VL against E06; Fab constant parts not specified; also called germline clone M4; germline E06
binding result [6]: binds

B5: I20 Fab (Fab, V domains shown)
VH: B2 VH
VL: B4 VL with S92D
notes: Point mutant of M4 tested as Fab; Fab constant parts not specified
fold improvement in EC50 compared to germline E06 as Fabs [1]: > 10 fold

B7: E06 full length IgG (antibody, V domains shown)
VH: B2 VH
VL: B2 VL with E1D, V3Q, L4M, V86T, R94S
notes: also called antibody E06; Wt (E06)
EC50 [2]: 30 pM | Kd [3]: 2520 pM | EC50 [7]: 49 pM | EC50 [8]: 48 pM | EC50 (read off the curve) [5]: ~0.07 µg/mL and ~0.06 µg/mL

The next lines start with the values.

fold improvement in EC50 compared to germline E06 as Fabs [1]: > 10 fold
B1: D04 Fab (Fab, V domains shown)
VH: B2 VH
VL: B4 VL with S30H
notes: as for B5

EC50 [2]: 43 pM | EC50 [4]: 17 pM | EC50 (read off the curve) [5]: ~0.1 µg/mL
B3: H1DR IgG (antibody, V domains shown)
VH: B2 VH
VL: B2 VL with S30H, S92D

fold improvement in EC50 compared to germline E06 as Fabs [1]: > 10 fold | fold improvement of binding over E06 [1]: ~25 fold
B6: J05 Fab (Fab, V domains shown)
VH: B2 VH
VL: B4 VL with S94R
notes: Point mutant (VL S94R) of M4 tested as Fab; Fab constant parts not specified; also called point mutant J05
